Results reported in the supplement of paper PMC12042874.
± gives the uncertainty stated by the source.

Assay: amyloid nucleation score (Sup35N fusion, yeast selection) (log enrichment); library NNK1; higher = more nucleation; inactive = no reads after selection
Method in brief: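 For the nucleation score, DiMSum gave the log enrichment of output over input reads, centred on the mode score of non-aggregating sequences. Psi-negative yeast expressing Sup35N fused to peptides of 20 random codons were induced with 100 μM copper sulfate for 24 hours and grown 7 days at 30°C on medium lacking adenine and uracil. Input and output plasmid inserts were Illumina-sequenced, and sequences with under 100 input reads were excluded.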

| Substance | amyloid nucleation score |
| --- | --- |
| PITILVVFNLQKY | 6.242 ± 0.046 |
| LSDWWKTSMFGYPVYSVVAR | 0.62 ± 0.36 |
| LSYNTISGFIAYIIDMSPFV | inactive |
| LVCDQLLIITLKCDERHQVT | 7.474 ± 0.074 |
| LQFNMVYVCYGWSSVYARSG | 0.409 ± 0.28 |
| IYQLDVLGFDFN | inactive |
| SSYAVSTSSPCLSATSARLK | 0.893 ± 0.98 |
| FYRNIIKINMMVLWISWGHV | 0.185 ± 0.79 |
| RTRTFVNPAAAIHMPPSEET | 0.049 ± 0.29 |
| CFNMYLDVFDRVCRM | 1.85 ± 0.13 |
| IGSVDALKVVDVAMCVPT | 2.34 ± 0.54 |
| EFERVRYLYCGRPVPSHILL | 0.005 ± 0.89 |
| WVSPLVYDWYLT | -0.929 ± 2.7 |
| CDWYDQMREVGESYVALSYN | -0.386 ± 0.48 |
| VLVMVEFTMLEALWRCLAVG | -0.297 ± 0.5 |
| RFQGGWSRF | 3.68 ± 0.11 |
| EYVRRKFQPSCTVMRYCFAR | 0.006 ± 0.77 |
| ISNGFQSV | -0.027 ± 0.81 |
| IGWFHHFHHATLHRAISVFL | 0.633 ± 0.42 |
| IFYSLFEDTYGGYVLNTAYL | inactive |
| NCTARMKVGFAGFSFTLWIA | 0.533 ± 0.56 |
| STLPMHRNMTLRRLSCVQSY | -0.069 ± 0.34 |
| FCKWCRFDDCTRGYIYFVRR | 1.76 ± 0.37 |
| MGGLRVYRPCVER | -0.437 ± 0.71 |
| SGTQKNRCTSLMQC | 0.709 ± 0.53 |
| KTFYFTQLYSDYRLFFETGK | 0.558 ± 0.46 |

| Substance | amyloid nucleation score |
| --- | --- |
| LRSRR | 1.41 ± 0.76 |
| SVSYRDCVVKILK | 4 ± 0.074 |
| NSYRFSLFQ | 1.32 ± 0.46 |
| VVDFGSGCI | 0.423 ± 0.46 |
| LRKPKIYVTNRPTQGYGSTA | 0.169 ± 0.55 |
| WLVQAQALQGWKCFLHKISF | -0.186 ± 0.48 |
| NYRSGVLELWYGRSMPWS | 0.327 ± 0.42 |
| APLALSGRVCFWSWFCPLFV | 5.76 ± 0.084 |
| LCLLPG | 0.888 ± 0.5 |
| DKVLQLMYMGLDSGVLPSKD | -0.789 ± 1 |
| GAKICIYELVLHEMRACVAR | -0.282 ± 0.96 |
| RPRHIFDNSKVYNMGPYFYD | 1.59 ± 0.56 |
| VVARYYIQLFDRRDRN | 6.678 ± 0.065 |
| WYRVCV | -0.603 ± 0.65 |
| RREFYFLLVIALKSV | 1.32 ± 0.31 |
| GISFY | 1.28 ± 0.9 |
| LGRRIPCNLEWHHLDGALTR | 0.013 ± 0.36 |
| LSMPMGNLEPL | -0.277 ± 0.19 |
| DIPIDIWSYPQHGRFS | -0.814 ± 0.79 |
| VHCLLAGRKMNFGLFCINVQ | -0.025 ± 0.68 |
| KAPAMHWLDRFVGYVPRV | -0.011 ± 0.27 |
| MVRNKQKLLKGQ | 0.375 ± 0.49 |
| KAGVSVLYLHMFLF | -0.303 ± 0.79 |
| QRRYRDTAGLNRNIRNICSK | -0.257 ± 0.72 |
| LHTAETGRLHNAYVILVVYC | inactive |
| KKWHNVIGARDLSRIYSIA | inactive |

| Substance | amyloid nucleation score |
| --- | --- |
| FFASCIRYDSRNCIGNLQLG | 0.149 ± 0.64 |
| IIINGVL | 0.029 ± 0.62 |
| LYLFDPTNQKRFEVWKWK | 0.063 ± 0.49 |
| SYLHMFTMFV | -0.654 ± 0.52 |
| MSNMHNYLRLIWDTVCIQF | -0.083 ± 0.77 |
| IDNMGT | 2.4 ± 0.12 |
| SCKRSA | 0.578 ± 0.4 |
| TDLNLVMKKGSYVGCSSSCV | -0.605 ± 0.24 |
| RNSSGRGERLLVQYAQKKKR | -0.136 ± 0.41 |
| TVTYRLYVPATVCFKILFRR | -0.625 ± 0.33 |
| ASNYR | 0.008 ± 0.88 |
| SVNLGGHAGCCGCWAYGGFR | 0.851 ± 0.37 |
| TSSVGMWGQWYSRWNSRKCN | -0.573 ± 1.7 |
| FDKYLRWFMKTLCNIDNWRW | -0.233 ± 0.24 |
| GQLWGEVVIVYCKFAMEWAY | 0.898 ± 0.27 |
| SFSNVRNI | -1.52 ± 0.81 |
| IPNGNVSSSLSVGIMPVAFR | 4.36 ± 0.092 |
| WKQMVLGVWCESLELL | -0.548 ± 0.56 |
| RLVKSEDSNKNGLDLCRYEL | 0.753 ± 0.56 |
| MSDVCNVMKKVMQGTCFCGH | -0.293 ± 0.27 |
| CVPPRVRCRFEL | 0.792 ± 0.46 |
| NIKDRILYNVYMRGMCIYCL | 6.137 ± 0.053 |
| HSWYEELMVVLNISSHGHLD | 0.351 ± 0.52 |
| LSIAHYGLNQSMSVRYREST | 0.771 ± 0.66 |
| WYKMSRRGQ | 0.857 ± 1 |
| LHIIRRNRDSIAFVYWTV | 0.756 ± 0.41 |

| Substance | amyloid nucleation score |
| --- | --- |
| RYRCSKVRRAMSKLTYVGMA | 4.18 ± 0.07 |
| VYSFDMM | 0.256 ± 0.52 |
| AISTCQKRVYFWVQSGFVT | -0.072 ± 0.2 |
| SNSLTFYFSKCYTSCSNLLG | 6.079 ± 0.057 |
| RNLYQFM | 0.203 ± 0.27 |
| VRECRSMERTTHQVCTWGGA | 0.078 ± 1.4 |
| NHSNTCEWRSCRP | 0.551 ± 0.61 |
| SIEGRSSIQATMCSMLLNGP | -0.197 ± 0.39 |
| AVSVWYYSRVRGRG | 0.025 ± 0.46 |
| WNCLCSGLTC | 6.806 ± 0.055 |
| KRTAHRMVRSCSLWKVRYRQ | 0.462 ± 1.2 |
| VYRCCLKAVCFIDVVTGLWG | -0.173 ± 0.71 |
| GPVVLRTGLLVRFTYHIGRE | 1.15 ± 0.24 |
| SVPRSGKALLLSMMQLGYDS | 0.09 ± 0.39 |
| KLILK | -0.378 ± 0.51 |
| RSLRVA | -0.214 ± 1.2 |
| FSMSILENRYTTFELSGAYQ | -0.722 ± 0.66 |
| WPTIPAVQCRRVVCSRDTWA | -0.185 ± 0.31 |
| VGFYCHLCGYLVWGRWKHSA | 1.18 ± 0.97 |
| LGIFSNIYGFV | 0.277 ± 0.45 |
| QLVKSVY | -0.166 ± 0.35 |
| RRRRSDKDVYPFQSFMFNVV | 0.476 ± 0.3 |
| LRWPFCQGLYTYLCSLT | 1.39 ± 0.47 |
| IDWSVHL | inactive |
| LAIVGQACRGVVEHARVSGH | 0.136 ± 0.41 |
| VCESVNNAHAAYSAVLSVQM | -0.347 ± 0.54 |

| Substance | amyloid nucleation score |
| --- | --- |
| REGNVSYYSFGL | -1.48 ± 1.4 |
| RGYMCHCRVVSACFLYRKVQ | -0.044 ± 0.25 |
| SCMMYQMCNWHERAPSTVLL | 0.908 ± 0.58 |
| PHYFFS | -0.593 ± 0.39 |
| GYDRSGT | 0.135 ± 1.2 |
| YKFKGSFVSIRQGAEVGYSA | -0.361 ± 0.69 |
| VLTTS | -0.086 ± 0.26 |
| TRVASQDARTDP | -0.034 ± 0.49 |
| GKNFSTMAWP | -1.25 ± 2.7 |
| CYSAVPIYDFKYRPAGYYIS | inactive |
| LRTCFEQRENMIA | -0.229 ± 0.79 |
| TVFYMRPVGSGTGNLNLLQL | 0.906 ± 1 |
| EQHSPHPTIEKIALTCFTRC | -0.189 ± 0.4 |
| WRVNVEVKYFAEKTVQECWV | 0.817 ± 0.23 |
| NRFTHHSIR | 1.19 ± 0.84 |
| FDGGKVSILFAFISNP | 6.252 ± 0.048 |
| ANSYARCYNLVWKLV | -0.291 ± 0.66 |
| IGVVVWRPNLILRKEYLWRV | -0.858 ± 2.1 |
| GRGVLDYNGTTKKARVNRLC | inactive |
| WMALDYGYSTSHGNCYMEIS | 1.23 ± 0.84 |
| TLVCNGQISTNLYYVKVGSS | 2.83 ± 0.12 |
| RLLLYG | inactive |
| ICTEIRRGLHE | 1.11 ± 0.71 |
| SYKLVRTLNG | inactive |
| FFIYPWFRMTFERRLDGELG | 1.62 ± 0.27 |
